Reference: patent publication US20180186871A1 (SINGAPORE HEALTH SERVICES PTE, published 2018)

T1: human IL-11 (human, UniProt P20809 22-199)
T1 sequence (looked up): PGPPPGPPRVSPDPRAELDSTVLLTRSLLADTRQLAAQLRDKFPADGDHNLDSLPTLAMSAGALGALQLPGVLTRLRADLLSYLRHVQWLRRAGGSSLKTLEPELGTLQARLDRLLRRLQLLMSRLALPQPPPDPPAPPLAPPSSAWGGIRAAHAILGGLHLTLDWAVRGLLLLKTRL

T2: FLAG-tagged human IL-11 expressed at the cell surface (human, UniProt P20809 22-199)
T2 construct: whole, on cells; also called IL-11 expressing HEK cells; target cells expressing human IL-11 at their surface; not shown: how the protein is held at
T2 sequence (looked up): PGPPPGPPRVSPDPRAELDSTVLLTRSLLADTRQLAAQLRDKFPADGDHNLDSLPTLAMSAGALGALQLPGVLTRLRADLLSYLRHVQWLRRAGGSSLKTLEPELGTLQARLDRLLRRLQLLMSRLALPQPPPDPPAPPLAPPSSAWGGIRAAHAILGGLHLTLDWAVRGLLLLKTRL


Biological target: T1, human IL-11
Test: cell-based or functional assay

| Binder | MMP2 production (ng/ml), TGFB1-stimulated human atrial fibroblasts, Experiment 1 (NEG 42.7, POS 70.2) [ng/mL] | MMP2 production (ng/ml), TGFB1-stimulated human atrial fibroblasts, Experiment 2 (NEG 36.2, POS 62.3) [ng/mL] |
| --- | --- | --- |
| YU112-E07 (scFv) scFv: QVQLVQSGGGVVQPGRSLRLSCAASGFTFGSYGMHWVRQAPGKGLEWVAVISYDGSNKYYADSVKGRFTISRDNSKNTLYLQMNSLRAEDTAVYYCAKGSYYFDYWGQGTLVTVSSGSASAPKLEEGEFSEARVEIVMTQSPDSLAVSLGERATINCKSSQSVNSAYLAWYQHKPGQPPRLLIYGASRRVTGVPDRFSGSGSGTDFTLTISSLQPEDFATYYCQQSYSDPRWTFGQGTKVEIK | 53.5 | 49.1 |
| YU100-E06 (scFv) scFv: QVQLVESGGGVVQPGRSLRLSCAASGFTFSSYGMHWVRQAPGKGLEWVAVISYDGSNKYYADSVKGRFTISRDNSKNTLYLQMNSLRAEDTAVYYCAKIGATDPLDYWGQGTLVTVSSGSASAPKLEEGEFSEARVQSALTQPASVSGFPEQSITISCTGTSSDVGGYDYVSWYQQHPGKAPKLMIYDVTNRPSGVSNRFSGSKSGNTASLTISGLQPEDEADYYCSSYTSNTTWVFGGGTKLTVLRQPKAAPSVTLFPPSS | 54.1 | 48.2 |

Biological target: T1, human IL-11
Test: EC50 from the indirect ELISA titrations of FIGS. 28A-28F on plate-coated recombinant human IL-11 (five-parameter fit), ng/ml is the concentration unit of FIG. 28 and paragraph 502

| Binder | EC50 [µg/mL] |
| --- | --- |
| YU45-D9/D3 (Fc fusion, tested as scFv-Fc (human IgG1); also called #31) VH: EVQLVESGGGVVQPGRSLRLSCAASGFTFSSYGMHWVRQAPGKGLEWVAVISYDGSNKYYADSVKGRFTISRDNSKNTLYLQMNSLRAEDTAVYYCARLHFSQYFSTIDAFDIWGQGTMVTISS VL: QSVLTQPPSVSAAPGQEVTISCSGSSSNIGNNYVSWYQHLPGTAPKLLIYDNTERPSGIPDRFSGSRSGTSVTLGITGLQTGDEADYYCGTWDSSLSGGVFGGGTKLTVL | 0.71 |
| YU45-G7 (Fc fusion, tested as scFv-Fc (human IgG1); also called #33) VH: not shown VL: QSVLTQPPSVSAAPGRTVTISCSGSYSNVGSNLVSWYQQLPGTAPKLVIYEDDKRLSGIPDRFSGSKSGTSASLAISGLQSEDEADYYCAAWDDSLKGHVFGGGTQLTVL | 0.0101 |
| YU46-B6 (Fc fusion, not shown: a dimerising Fc or GST; small tags and cut ends, tested as scFv-Fc (human IgG1); also called #47) VH: QVQLVQSGAEVKKPGASVKVSCKASGYTFTSYGISWVRQAPGQGLEWMGWISAYNGNTNYAQKLQGRVTMTTDTSTSTAYMELRSLRSDDTAVYYCARVVAAARSYYYYMDVWGKGTTVTVSS VL: SSELTQDPAVSVALGQTVRITCQGDSLRGYYATWYQQKPGQAPVVVMYGNNNRPSGIPDRFSGSSSGNTASLTITGAQAEDEADYYCDSRGRSGDHWLFGGGTKLTVL | 0.222 |
| YU45-C11/A10 (Fc fusion, tested as scFv-Fc (human IgG1); also called #6) VH: EVQLLESGGGVVQPGRSLRLSCAASGFTFSSYAMHWVRQAPGEGLEWVAVISYDGSNKYYADSVKGRFTISRDNAKDSLYLQMNSLRDEDTAVYYCARRGYFDYWGQGTLVTVSS VL: QSALTQPASVSGSPGQSITISCTGTSSDVGGYNYVSWYQQHPGKAPKLMIYDVSNRPSGVSNRFSGSKSGNTASLTISGLQAEDEADYYCSSYTSSSTVVFGGGTKLTVL | 0.0677 |
| YU46-D3 (Fc fusion, not shown: a dimerising Fc or GST; small tags and cut ends, tested as scFv-Fc (human IgG1); also called #56) VH: EVQLLESGGGVVQPGRSLRLSCAASGFTFSSYAMHWVRQAPGKGLEWVAVISYDGSNKYYADSVKGRFTSSRDNSKNTLYLQMNSLRAEDTAVYYCARSGVLDYWGQGTLVTVSS VL: QSALTQPASVSGSPGQSITISCTGTSSDVGNYKYVSWYQQHPGKAPKLMIYDVSNRPSGVSNRFSGSKSGNTASLTISGLQAEDEADYYCSSYTSSSTLVVFGGGTKLTVL | 0.655 |
| YU45-H11/D12 (Fc fusion, tested as scFv-Fc (human IgG1); also called #9) VH: EVQLLESGGGVVQPGRSRRLSCAASGFTFSSYGMHWVRQAPGKGLEWVAVISYDGSNKYYADSVKGRFTISRDNSKNTLYLQMNSLRAEDTAVYYCAKLYSGSSNFDYWGQGTLVTVSS VL: QSALTQPASVSGSPGQSITISCTGTSSDVGGYNYVSWYQQHPGKAPKLMIYDVSNRPSGVSNRFSGSKSGNTASLTISGLQAEDEADYYCSSYTSSSTWVFGGGTKLTVL | 0.0146 |
| YU45-H3 (Fc fusion, tested as scFv-Fc (human IgG1); also called #25) VH: EVQLVESGGGVVQPGRSLRLSCAASGFTFSSYAMHWVRQAPGKGLEWVAVISYDGSNKYYADSVKGRLTISRDNSKNTLYLQMNSLRAEDTAVYYCARMVNLYYGDAFDIWGQGTMVTVSS VL: QSALTQPASVSGSPGQSITISCTGTSSDVGGYNYVSWYQQHPGKAPKLMIYDVSNRPSGVSNRFSGSKSGNTASLTISGLQAEDEADYYCSSYTSSSTVVFGGGTKLTVL | 0.126 |
| YU45-H10 (Fc fusion, tested as scFv-Fc (human IgG1); also called #22) VH: EVQLLESGGGVVQPGRSRRLSCAASGFSLNSYGMHWVRQAPGKGLEWVAVISYDGSNKYYADSVKGRFTISRDNSKNTLYLQMNSLRAEDTAVYYCAKLYSGSSNFDYWGQGTLVTVSS VL: QSALTQPASVSGSPGQSITISCTGTSSDVGGYNYVSWYQQHPGKAPKLMIYDVSNRPSGVSNRFSGSKSGNTASLTISGLQAEDEADYYCSSYTSSSTWVFGGGTKLTVL | 0.0248 |
| YU45-G1 (Fc fusion, tested as scFv-Fc (human IgG1); also called #11) VH: EVQLLESGGGVVQPGRSLRLSCAASGFTFSSYGMHWVRQAPGKGLEWVAVISYDGSNKYYADSVKGRFTISRDNSKNTLYLQMNSLRAEDTAVYYCAKLSGPNGVDYWGQGTLVTVSS VL: QSALTQPRSVSGSPGQSVTISCTGTSSDVGGYNYVSWYQQHPGKAPKLMIYDVSKRPSGVPDRFSGSKSGNTASLTVSGLQAEDEADYYCCSYAGSYTFVFGGGTKLTVL | 0.0428 |
| YU46-E3 (Fc fusion, not shown: a dimerising Fc or GST; small tags and cut ends, tested as scFv-Fc (human IgG1); also called #50) VH: QVQLVESGGGVVQPGRSLRLSCAASGFTFSSYGMHWVRQAPGKGLEWVAVISYDGSNKYYADSVKGRFTISRDNSKNTLYLQMNSLRAEDTAVYYCARIGGYDDFDYWGQGTLVTVSS VL: QSALTQPASVSGSPGQSITISCTGTSSDVGGYNYVSWYQQHPGKAPKLMIYDVSNRPSGVSNRFSGSKSGNTASLTISGLQAEDEADYYCSSYTSSSTWVFGGGTKLTVL | 0.707 |
| YU45-A8/C6 (Fc fusion, tested as scFv-Fc (human IgG1); also called #27) VH: QVQLVESGGGVVQPGRSLRLSCAASGFTFSSYGMHWVRQAPGKGLEWVAVISYDGSNKYYADSVKGRFTISRDNSKNTLYLQMNSLRAEDTAVYYCAKLSGPNGVDYWGQGTLVTVSS VL: QSALTQPASVSGSPGQSITISCTGTSSDVGGYNYVSWYQQHPGKAPKLMIYDVGNRPSGVSNRFSGSKSGNTASLTISGLQAEDEADYYCSSYTSGSTWVFGGGTKLTVL | 0.71 |
| YU45-B6 (Fc fusion, tested as scFv-Fc (human IgG1); also called #36) VH: not shown VL: QSALTQPRSVSGSPGQSVTISCTGTSRDVGGYNYVSWYQQHPGEAPKLMIFDVSKRPSGVPDRFSGSKSGNTASLTISGLQAEDEADYYCCSYADYYTWVFGGGTKVTVL | 4.98 |
| YU46-A8 (Fc fusion, not shown: a dimerising Fc or GST; small tags and cut ends, tested as scFv-Fc (human IgG1); also called #45) VH: not shown VL: QSALTQPRSVSGSPGQSITISCTGTSSDVGGYEYVSWYQQHPGKAPRLLIYDVSNRPSGVSNRFSGSKSGNTASLTVSGLQAEDEADYYCNSYTSSGTLVVFGGGTKLTVL | 0.351 |
| YU46-G8 (Fc fusion, not shown: a dimerising Fc or GST; small tags and cut ends, tested as scFv-Fc (human IgG1); also called #54) VH: EVQLVESGGGVVQPGRSLRLSCAASGFSLGSYGMHWVRQAPGKGLEWVAVISYDGSNKYYADSVKGRFTISRDNSKNTLYLQMNSLRAEDTAVYYCAKGSYYFDYWGQGTLVTVSS VL: DIQMTQSPSSLSASVGDRVTITCRASQGSSSYLAWYQQKPGKAPKLLIYAASSLQSGVPSRFSGSGSGTDFTLTISSLQPEDFATYYCQQSYSTPLYTFGQGTKLEIK | 0.0323 |

Biological target: T2, FLAG-tagged human IL-11 expressed at …
Test: flow cytometry of hybridoma subclone supernatants on cells transfected with pB1-IL11-hum.FL (FLAG-tagged human IL-11 at the cell surface), anti-mouse IgG detection; sheet says 'flow cytometry (Attunes)', legend says iQue

| Binder | % positive (anti-FLAG positive control = 100%) [%] |
| --- | --- |
| BSN-2E1 (antibody, V domains shown, mouse monoclonal anti-human IL-11 antibody from a hybridoma; also called A3) VH: QVQLQESGPELVKPGASVKIPCKASGYTFTDYNMDWVKQSHGKSLEWIGDINPHNGGPIYNQKFTGKATLTVDKSSSTAYMELRSLTSEDTAVYYCARGELGHWYFDVWGTGTTVTVSS VL: NIVMTQSPKSMSMSVGERVTLTCKASENVVTYVSWYQQKPEQSPKLLIYGASNRYTGVPDRFTGSGSATDFTLTISSVQAEDLADYHCGQGYSYPYTFGGGTKLEIK | 164 |
| BSN-3C6 (antibody, V domains shown) VH: EVQLQQSGPELVKPGASVKIPCKASGYTFTDYNMDWVKQSHGKSLEWIGDINPHNGGPIYNQKFTGKATLTVDKSSSTAYMELRSLTSEDTAVYYCARGELGHWYFDVWGTGTTVTVSS VL: DIVLTQSPASLAVSLGQRATISCRASKSVSTSGYSYIHWYQQKPGQPPKLLIYLASNLDSGVPARFSGSGSGTDFTLNIHPVEEEDAATYYCQHSRDLPPTFGGGTKLEIK | 176 |
| BSN-1H2 (antibody, V domains shown) VH: QAQLQQSGAELARPGASVKLSCKASGYTFTSYGITWVKQRTGQGLEWIGDIYPRSGNIYYNENFKGEATLTADKSSSTAYMQLSRLTSEDSAVYFCARSGWEGWFAYWGQGTLVTVSV VL: DIVMTQSHKFMSTSVGDRVNITCKASQDVGSAVVWYQQKPGQSPKVLIYWASTRHTGVPDRFTGSGSGTDFTLTISNVQSEDLADYFCQQYSSYRTFGGGTKLEIK | 157 |
| BSN-2G6 (antibody, V domains shown, mouse monoclonal anti-human IL-11 antibody from a hybridoma; also called A5) VH: QVQLQESGPELVKPGASVKIPCKASGYTFTDYNMDWVKQSHGKSLEWIGNINPDNGGTIYNQKFKGKATLTVDKSSSTAYMELRSLTSEDTAVYFCAREGPYGYTWFAYWGQGTLDTVSA VL: DILLTQSPAILSVSPGERVSFSCRASQSIGTSIHWYQQRTNGSPRLLIKYASESISGIPSRFSGSGSGTDFTLSINSVESEDIADYYCQQSNSWPLTFGAGTKLELK | 23 |
